Reference: the supplement of paper PMC10724198
± gives the standard deviation of the averaged measurements.

Test system: Saccharomyces cerevisiae
Experiment: protein stability index of tFT-peptide fusion (C-terminal peptide) (PSI (0-1 scale)); higher = more stable (slower turnover)
Settings: genetic background: wild type; temperature: 30 C
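Also: PSI is a weighted mean of sequencing reads over stability bins, variants kept only with over 10 reads, mCherry proximal and sfGFP distal, peptide attached via GGGS linker.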

Sequence	protein stability index
NTHPPPLPTTKH	0.7393 ± 0.007
PRSSVPATPHRR	0.72 ± 0.031
PPLPPLLFRSPP	0.687 ± 0.017
IFCCFFPRFPVF	0.642 ± 0.013
VVGWGWGGVVRR	0.763 ± 0.02
PPTSHHHYHRQQ	0.695 ± 0.053
PLFASLHPSGPL	0.699 ± 0.032
EFSILLPLPFFR	0.656 ± 0.076
PPPTAPSLSSPS	0.688 ± 0.047
VILCPVCFPEEK	0.66459 ± 0.00057
RSFPLRLLSLFV	0.585 ± 0.019
LQLKNTNKNKTT	0.666 ± 0.047
LDLSIKNPIKWR	0.747 ± 0.089
SPLDEYIDSVPA	0.726 ± 0.017
SVPVLLLSILSP	0.542 ± 0.013
GSDHIRQRNRME	0.716 ± 0.025
LCHLSSFLAALS	0.618 ± 0.012
CRVNSVRPVYPS	0.7079 ± 0.0049
RRCDKTMSEGFF	0.692 ± 0.078
LGVGGRWGVPGA	0.715 ± 0.04
GSGYRPRVESWI	0.681 ± 0.0079
GGGVPGGLGREG	0.677 ± 0.043
SEVFAVGITGVI	0.6788 ± 0.0039
PPPPPPRPPSSP	0.694 ± 0.022
EQDLSTKVKRST	0.65 ± 0.12
NLRRPLYYNGSV	0.757 ± 0.076

Sequence	protein stability index
ALQVKWRGCLRF	0.733 ± 0.099
PPPPPPPPPVLP	0.675 ± 0.0081
LGLYNRFSMFGS	0.645 ± 0.026
RRGYSNCMTLWI	0.702 ± 0.049
RDGLVPFCVVII	0.615 ± 0.048
PPVLHSSEPPDS	0.707 ± 0.024
CGVHESAIQPNL	0.605 ± 0.0081
QKKNNKTTKKTK	0.686 ± 0.012
GAFLPLTCDIIC	0.598 ± 0.013
KKKKTKYIKRKK	0.701 ± 0.18
YFFECFKECREQ	0.749 ± 0.015
FPPPPTHPASSP	0.691 ± 0.027
FRLLLLKIKSEQ	0.619 ± 0.034
STLVIPFPPFHF	0.7 ± 0.018
PPPLPPSPPHHP	0.689 ± 0.04
KKIYEKRKKLRK	0.756 ± 0.057
WGGGGGGSGACL	0.6974 ± 0.0069
NSRCSIQGAPLL	0.726 ± 0.041
RCFQPLRQRMGR	0.734 ± 0.064
RSTTDNADRILY	0.7299 ± 0.0022
YSRGVSGSDKFP	0.747 ± 0.16
GRGLVDLLCGWV	0.683 ± 0.074
SLFLFCLRCLQF	0.576 ± 0.037
NPTDIAINTGIS	0.742 ± 0.0081
GSGVGACRGVKV	0.685 ± 0.034
SPPPLPPVRPPV	0.722 ± 0.033

Sequence	protein stability index
YDLLLYGGATSP	0.757 ± 0.084
GGGWGERGRGGS	0.729 ± 0.037
SWVSSGTVILQE	0.74 ± 0.077
CLPRFLGLGGRV	0.68 ± 0.072
RRLQGKWIWQNH	0.731 ± 0.055
LSFLSDFCLWVL	0.659 ± 0.053
KMVTRKKNEEKD	0.6328 ± 0.0029
PSPPAPPPETSP	0.713 ± 0.031
VYDASLPIRFFL	0.697 ± 0.013
GLGVVHGYFLVE	0.59 ± 0.025
GLNCGVCFGGGV	0.701 ± 0.025
RRRGEGRREKDR	0.677 ± 0.12
GRGRCRGGVAVE	0.751 ± 0.23
QSRSEVFPCHAS	0.848 ± 0.15
RWLGWRAGGAAG	0.662 ± 0.071
SPSPLSLRLPPP	0.632 ± 0.028
YDSGNWPGFRCQ	0.73 ± 0.055
AEAFFRIVRTVR	0.721 ± 0.034
VRVFLSNALFHH	0.596 ± 0.019
QMRRRGARRAKP	0.743 ± 0.027
MYTCMSSNPLAC	0.66 ± 0.039
PPSSPPHSRRHG	0.664 ± 0.055
PPPPPPPHHSPP	0.722 ± 0.047
PRSRSHPLCSAP	0.813 ± 0.062
LWPSLRRFHSTS	0.714 ± 0.2
EIPGPLALSPAG	0.736 ± 0.015

Sequence	protein stability index
GPLDEPRIWSHR	0.669 ± 0.0095
ARSFALLGCRRS	0.677 ± 0.042
CCKMITYKEGRE	0.692 ± 0.06
RVSEPRRPPLGR	0.65 ± 0.024
KTDNTRTQKMVR	0.808 ± 0.011
PTRSPPPAAIAS	0.697 ± 0.14
RDSMVFEVRYSQ	0.698 ± 0.1
PVCELCLITLRG	0.59 ± 0.053
LPVPTLGRPLSL	0.69 ± 0.034
PREVGVYQQIRD	0.63 ± 0.019
KNTRIKKMKRRT	0.827 ± 0.097
GRGGEVALWRGV	0.6479 ± 0.0014
ALPLRFSSPGPS	0.659 ± 0.0068
MAINAGYYKWRH	0.767 ± 0.053
YINRKKKKINKT	0.675 ± 0.066
IRPSVCQAPDMR	0.679 ± 0.042
GGSGVHRHRPFG	0.666 ± 0.055
PPPGPPLPPGLP	0.749 ± 0.033
ASCHFSILPTRL	0.67 ± 0.032
PPLSPPPPPPVP	0.688 ± 0.066
PSPPFLPPPVPL	0.685 ± 0.056
IMGLGLASAKRM	0.677 ± 0.073
STNARRLWGRGV	0.699 ± 0.033
